Data from the supplement of paper PMC12764529.
± gives the half width of the 95% confidence interval.

Legend:
[1] = folding stability dG unfold from trypsin proteolysis; higher = more stable
How it was run: (§1)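 Unfolding free energy was derived, per protease or combined, against a sequence-predicted unfolded-state K50 and a shared folded-state K50, starting from K50 inferred by Bayesian fitting of sequencing counts. Digestion with trypsin and chymotrypsin was carried out on designed mini-proteins under 80 residues without cysteine in a PA-tagged cDNA display construct. Only designs with AlphaFold2 dimer inter-PAE above 15 were kept.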

[2] = folding stability dG unfold from chymotrypsin proteolysis; higher = more stable
How it was run: as §1

[3] = folding stability dG unfold (combined trypsin and chymotrypsin); higher = more stable
How it was run: as §1

| Sequence | folding stability dG unfold [1] [kJ/mol] | folding stability dG unfold [2] [kJ/mol] | folding stability dG unfold [3] [kJ/mol] |
| --- | --- | --- | --- |
| SAGGSAGGSGIPVEPIPVRNPKGEIVEVIRFPEDFALVVFPSGERALLRGPELSLRDVVFFPLSAGGSAGGS [r12_491_TrMRF] | 2.82 ± 0.0962 | 1.28 ± 0.226 | 2.23 ± 0.23 |
| SAGGSAAKPGETVRVVVTVRVPPGATAEELKAALEALLGPDAEVTVEVFETPDTVVVVVEVRLPPASAGGSA [r15_749_TrROS_Hall] | 11.1 ± 1.09 | 11.1 ± 0.46 | 11.5 ± 0.795 |
| SAGGFKEIKKKLGVKKEDKVILDLEVNFGKKPKFFKVEFEVDKLEEIVKELGIPKENLKIVKAVVIKESAGG [r13_681_TrMRF] | -2.19 ± 1.3 | 4.85 ± 0.343 | 2.95 ± 0.544 |
| SAGGSAKLIVADVSPLPDGGFAVNVTFVGENGEPVAVKPFYAGSPEELLAALKKFAEENGYEVVVASAGGSA [r15_242_TrMRF] | 15.1 ± 0.502 | 19.1 ± 0.251 | 18.5 ± 0.46 |
| SATTTLNLSSVEELKELVEKLIAEGNPEATLTVTLYPPSGESSTKSFSSVEEVIEELKKGPASVTITVTSSA [r9_589_JUSTAS] | 9.13 ± 0.188 | 11.3 ± 0.092 | 10.7 ± 0.205 |
| SAGERKVLVIENLTSEELIEAIREALEKSPPGLLILVPDPEKAEEIRRAFPGIPLVVLNRETGELVEVESAG [r5_391_TrMRF] | 12.6 ± 0.502 | 14.5 ± 0.184 | 13.9 ± 0.414 |
| SAGGFLENLPDEVVEAALAAVLPDGSRVFVALRKGPDRPRVLIITFDANGVPRDIRELDPEEALKALEASAG [r5_73_TrMRF] | 10.4 ± 0.176 | 11.5 ± 0.117 | 11.2 ± 0.142 |
| SAGGMVEVKPFEIKPPGSSITVTLTDPQGNVIGSTTVSVPTGRLELTITVEPDKTVKVTLTELPPSEVSAGG [r13_935_JUSTAS] | 5.94 ± 0.36 | -1.1 ± 1.42 | 4.23 ± 0.544 |
| SAGGNPRPIELYFPEGKIEKIQEKLREEDGYDVDIQMEQNPDGWFKINITFQDPQRVMDILEKFGITSAGGS [r16_172_TrROS] | 4.98 ± 0.243 | 5.72 ± 0.13 | 5.28 ± 0.372 |
| SAGGSAGGSATITITVDGKTITLEVPEDSEVEIVFDEKTGKLFIKDKKTNKVYEVSLEELLSAGGSAGGSAG [r3_137_TrROS_Hall] | 15 ± 0.92 | 16.7 ± 0.628 | 16.4 ± 0.544 |
| SAGKVKATYDPKTGTLTITFNVKKNEKINVKANIKIPEYNATVEKVETNGAKKDNEPVTVKIKLKNLKKSAG [r5_737_TrMRF] | 4.45 ± 0.318 | 11.5 ± 0.502 | 8.1 ± 2.26 |
| SAGGSAGGSAGKIKVEKDKKTNEYRVTIELFDKNGKPVKKIEITVKKEDLPKIKELLKKLSAGGSAGGSAGG [r11_77_TrROS_Hall] | 12.4 ± 0.289 | 15.1 ± 0.418 | 14.2 ± 0.318 |
| SAIEIYIYPDNWMISIEPPNPNGPEKEIMIPIDKDDLKNPEFLKEIADEIMENGIPVEADIMPPGQPIPSAG [r14_60_TrROS] | 3.58 ± 1.13 | -0.216 ± 0.544 | 1.29 ± 1.59 |
| SAGGASLDDLPLEGIEVLEEEVIPLPNGSTLRKFLVKKPSPGPPELLVEVTEFVDEGSSSVSVTPLGSAGGS [r16_469_JUSTAS] | 0.747 ± 0.226 | -1.26 ± 1.88 | 0.417 ± 0.586 |
| SAGPEVVVFKGIEVEVTEVPPELLENLPPDVIAIPFGDRVLLIRVREYDVARFPPIPPLGANPETGELSSAG [r14_126_TrMRF] | 9.08 ± 0.502 | 10.9 ± 0.46 | 10.2 ± 1.26 |
| SAGHPWMFRAKVEYDDGKPVGEREINIPGMPIDDIASDLFNEPGLRKVKIEFYWMDGEPQEIEIPVKPSAGG [r19_269_TrROS] | 3.35 ± 0.406 | 1.91 ± 1.17 | 2.88 ± 0.879 |
| SAGMPPPEEVFVVKVRFDGKELTLVVRVPPGMSAEEVAKKLAEELRKKFGPDIEVEVRRVSREELLEALSAG [r5_583_TrROS_Hall] | 15.3 ± 0.544 | 12.4 ± 0.502 | 13.5 ± 0.753 |
| SAGGSAKTISIIIPFKGLTPEQAIEIAKELEKLLGTKAKIESIPGKGYILVTLELPNKTSYIIIPGSAGGSA [r15_168_TrMRF] | 7.59 ± 0.172 | 8.7 ± 0.163 | 8.37 ± 0.222 |
| SAGGSAMVETKTFEFEFEFEFENPDGEPATVTVPVTVEVPVLVPVAAPGPPGANGPEKELEELEKESAGGSA [r15_728_TrMRF] | 4.41 ± 0.402 | 2.68 ± 0.272 | 3.27 ± 0.544 |
| SAGGSAGGSAGGKTVLISLEDLEALKKLPPGAKVKIEPIKTPEGTVYRVNVETGKIEKVPSAGGSAGGSAGG [r7_765_TrROS_Hall] | -1 ± 0.879 | 0.731 ± 1.09 | 0.415 ± 0.92 |
| SAGGSAGGSAGMTIKEDPKTGTRVVRLPDGSVLYIEEKGDKIKKVYSDPVPPVPPGNPALASAGGSAGGSAG [r3_406_JUSTAS] | 0.907 ± 0.109 | 3.07 ± 0.201 | 2.4 ± 0.255 |

| Sequence | folding stability dG unfold [1] [kJ/mol] | folding stability dG unfold [2] [kJ/mol] | folding stability dG unfold [3] [kJ/mol] |
| --- | --- | --- | --- |
| SAGGSAGGSKTVVITLPENEELGLEKLEELIEKVGPDAKIIISRWDPETGKVDYLVIETGEGKSAGGSAGGS [r12_913_TrMRF] | 4.27 ± 0.172 | 8.05 ± 0.879 | 7.08 ± 0.586 |
| SAGKITLDGFTLDGEQTLTLTVEVPAPGGGTRTETFTATVTFDPETGTAHVPVTLPNGEELPFTFKVDASAG [r5_743_TrMRF] | 4.92 ± 0.1 | 6.36 ± 0.377 | 5.92 ± 0.314 |
| SAGGKKFKIKEITITYNPDADTVTMTVKLDDGTTVELTFNKETKKLTVKVINKDTGEEKEFEFTLPDSAGGS [r8_363_TrROS_Hall] | 13 ± 0.711 | 20.5 ± 1.05 | 19.9 ± 1 |
| SAGGSAGGSAGGAPAAVESVEPLKIGDKEYLRITFPDGTTVTLPSSTPLSPDGQKLKPVPSAGGSAGGSAGG [r7_931_JUSTAS] | 2.72 ± 0.176 | 2.11 ± 0.13 | 2.63 ± 0.138 |
| SAGGSEVETVKVKIKVKIDGKVYEVEAEVEVFTDEDGRKVLRITLPDGRVVEIPLEDADKIEEIEVSAGGSA [r2_297_TrROS_Hall] | 19.7 ± 0.795 | 16.7 ± 0.46 | 17.8 ± 0.364 |
| SVPPNAPPGMKPKRVEIFIFIPPELYDKDGKISPEQLKKAKGMAKMIKLRLREQYPGYGIDDVKVHIMPGSA [r9_943_TrROS] | 11.6 ± 0.218 | 13.82 ± 0.092 | 13.1 ± 0.406 |
| SAGGSAKIVIKPDGTIEVEVNGKTFTFPPGAEIEIEEKDGELVLRIRLFNKDGKEVEEFEVTVRIESAGGSA [r15_424_TrROS_Hall] | 18.2 ± 0.795 | 23.1 ± 0.753 | 22.9 ± 0.753 |
| SAGKIEIEVNEDGYKVRIKVEIEGKTYEFEIKVEGLSVEEIVKKALEELKKLFPNKKIKVEVEILPKKESAG [r5_180_TrROS_Hall] | 17.3 ± 0.879 | 20.1 ± 1.26 | 20.5 ± 2.26 |
| SAGGMEIKEVKYDPEEGYLYIVVAAPPSVSPSEVVPAVVRAARELTGAEVEVEVDPETGYVVAKVPVSAGGS [r8_314_TrMRF] | 5.98 ± 0.109 | 8.02 ± 0.18 | 7.42 ± 0.372 |
| TWTFTIMIPIKPEIREALDSGKPLPIEELVDWIKDEIARMFGFKDVTVKGIEIHPDPNGEIMVMVTIEFKPS [r1_290_TrROS] | 18 ± 1.17 | 19.4 ± 0.502 | 19.3 ± 0.502 |
| SAGGSMLEVYYRIPPDIPLEEALERVAREVEEVLRARYGGPVTVEAEEVERPPDDETLLRVLVRFESAGGSA [r2_214_TrMRF] | 7.11 ± 0.126 | 10.7 ± 0.1 | 9.91 ± 0.46 |
| SAGGSAGGSAGSMTVTVTGGGVSVEVYPETGLVRVRSPSGSETLVDIATGEVVRREPAAASAGGSAGGSAGG [r11_149_JUSTAS] | 2.64 ± 0.197 | 3.65 ± 0.121 | 3.27 ± 0.276 |
| SAGGSAGGKAEKITLEIPNTGKKVEIIKPENKAIITVYDKNGKPIKTIVVPPNFPGIEDAVKADSAGGSAGG [r6_424_TrMRF] | -1.12 ± 0.285 | 3.24 ± 0.255 | 1.82 ± 0.502 |
| SAGGSADIARKIAKWLAEMYGIEEIKVKDIDPNGYIKVEIKMRMYDDGEPVEHKMDIEIPIPPGDLSAGGSA [r15_646_TrROS] | 5.45 ± 0.146 | 9.63 ± 0.13 | 8.3 ± 0.339 |
| SAGGEIKPGQTVRIRITVYNLETGEEKTIEVEVPAGKTLEEVLAELFDNLSEEERKNLVVRIEIEPVSAGGS [r16_321_TrROS_Hall] | 18.3 ± 0.628 | 21 ± 0.502 | 20.5 ± 1.09 |
| SAGGSAGGSEKEIVLVVKSKEDALKAAEELAKALGLEVEVEVIEVKTLENGEKYVVVKITIKDSAGGSAGGS [r12_924_TrROS_Hall] | 15.7 ± 0.669 | 15.5 ± 0.381 | 15.7 ± 0.837 |
| SSEILEKLAKELPDLEPVGVEEEPLPDGGRRLTLVARRPETGTYVRVTVDVPPGGGVASVEVEEVPVSRLSA [r9_274_JUSTAS] | 2.21 ± 0.226 | 9.31 ± 0.138 | 7.42 ± 0.226 |
| SAGGKVTLIEVEFEGGNPTISLTVTNADGSVEAVFVSPSPTDVLYATATLTVGGHPVVVVARASKDESAGGS [r16_672_TrMRF] | 5.44 ± 0.393 | 8.81 ± 0.234 | 7.54 ± 0.502 |
| SAGGMMKIKITIINENGETLTIEIEVPEEDLEEAIKALEDELKKKGYEIESIERVNGKITITVRIKPSAGGS [r16_662_TrROS_Hall] | 16.8 ± 0.669 | 17 ± 0.251 | 17.2 ± 0.502 |
| SAGGSAGGWITLDLIKELAREAMNQAQLNGMENVPIEIRWPDGWRIKIEINMNKVEVDVQPWNDSAGGSAGG [r6_270_TrROS] | 7.95 ± 0.46 | 10.7 ± 0.331 | 10 ± 0.628 |
| SMITSTTTTDPNSNTTTTTYTYPDTTYTVTRTLNPDNTVTVTVTATTPPGPTTPLSTVNLSPTDTLTLPVSA [r9_1172_JUSTAS] | 5.61 ± 0.13 | 5.27 ± 0.285 | 5.71 ± 0.226 |
